Reference: patent publication US20260167685A1, “NEW MICROPEPTIDE HMBJ AND USE THEREOF” (NANJING ANJI BIOTECHNOLOGY CO., LTD, priority 2023, published 2026)

How the values were obtained:
Assay type in all cases: cell-based
[1] = test system: human non-small cell lung cancer cells A549; test: inhibitory effect on human pulmonary fibrosis cell model (TGFβ1-stimulated, qPCR); details: 10 nmol recombinant human TGFβ1, different concentrations of synthetic micropeptide, co-incubation 24 h, qPCR (FIG. 13)
Excerpt: (§1) Compared with the related art, this application has the following beneficial effects: • (1) This application provides a lncRNA and a nucleotide sequence thereof. Through analysis of sequencing data for multiple organ fibroses, it is discovered that the lncRNA molecule ENSG00000272654 is expressed at a low level in the organ fibroses. […] The lncRNA molecule can be used for diagnosis or auxiliary diagnosis and treatment or auxiliary treatment of organ fibrosis, or can be used in preparation of a reagent for diagnosis or auxiliary diagnosis and treatment or auxiliary treatment of organ fibrosis. • (2) This application provides a nucleotide sequence of an open reading frame of the lncRNA. The nucleotide sequence can code new micropeptide HMBJ. […] Then, the extracted total RNA is reverse-transcribed by using a reverse transcription reagent, and then mRNA expressions of gene Col1a1, TGFβ1, and CTGF in the three organ fibrosis cell models are detected by real-time fluorescence quantification PCR. […]
Human non-small cell lung cancer cells A549 were cultured in a cell incubator at 37° C. under 5% CO2 until a cell density was 80% or more. […] Then, the cells were resuspended in a complete medium and counted by using a cell counter. […]

[2] = test system: human hepatic stellate cells LX-2; test: inhibitory effect on human liver fibrosis cell model (TGFβ1-stimulated, qPCR); details: LX-2 cells, 10 nmol recombinant human TGFβ1, different concentrations of synthetic micropeptide, co-incubation 24 h, qPCR (FIG. 11)
Excerpt: as §1
In this example, inhibitory effect of the micropeptide HMBJ on a human liver fibrosis cell model was detected. […] Then, the cells were resuspended in a complete medium and counted by using a cell counter. […]

[3] = test system: human renal proximal tubule cells HK2; test: inhibitory effect on human renal fibrosis cell model (TGFβ1-stimulated, qPCR); details: 10 nmol recombinant human TGFβ1, different concentrations of synthetic micropeptide, co-incubation 24 h, qPCR (FIG. 12)
Excerpt: as §1
Human renal proximal tubule cells HK2 were cultured in a cell incubator at 37° C. under 5% CO2 until a cell density was 80% or more. […] Then, the cells were resuspended in a complete medium and counted by using a cell counter. […]

Measured: inhibitory effect on mRNA expressions of gene Col1a1, TGFβ1, and CTGF

B1: HMBJ: new human endogenous micropeptide of 71 amino acids (SEQ ID NO. 3) coded by lncRNA ENSG00000272654, made by solid-phase synthesis (peptide, listed as Homo sapiens)
chain: MEAKLRVLVPAETGISETHDEHETFSLSLGSHSATQMNGVTFPHVTLLSLLLRAGPLHNLFKCSQLSLAPT
significant inhibitory effect: all assays above
